This data set in a line: label from the status in PepcDB records.
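Also: failed if final PepcDB status was selected cloned or expressed and not failed if soluble or beyond.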

Regarding “MNKLILISGLMLFSFFFGAGNLIFPPMLGYTAQENMWVSMTGFAITGILLPYITVIVVAYMNGGVESIGNKVHPIFGTVFAICIYLSIGALYGIPRAANVAYEIGTNHVLPVHNHFTLIIFSLIFFLVVYLIALYPNRIIDNLGKYLTPILIIIIAVLCILVIINPEGSIGQASGEYAQTPIVSGILEGYFTMDLVAALAFSVVIVQMFKMSGVNDHKTLVKNVIKSGLISAILLLIIYFALAYVGATTSHEGFKDGTGILTFNSLRVFGSIGNLLFGVIVILACLTTCIGLVNACAAFAMKKLPKISYKMFVLIFSLLGFLVSTLGLELILQIAVPLLTFIYPTSIVLVLISLVSIFIPFEMKYAFILPTLMTLFISLLQIFNDFNLFQPLISLYKVLPLSDIQLSWLLPFIILLFIGLIIDYFLKNKTVSTS”, the protein production entry is recorded as “failed”.
For “MNKNQMLLGSFLCLLAVTAWGFMFPVMARALQFIDPFFFTTLRYGSAAIIFLILLLITEGKTSLRLEKRTLSLFFYGTVGFAGYGFLVFYGQQLAGPSGAIHAAMIQSLMPLIALSLQWITQNRRPQNYTFLCMFVALLGVMLVISKGNIELLFGAASHLSTNILMLCGVTCWVIYTNGAARFQSWSPLRYTTLTCLFGSISLIVIVTFLTYTNIVTMPSLRTVVSVRFELFYMSIIAGVIAVFCWNMGNRYISSINGILFMNLVPILALIGSIFRGYTVDKIEIAGAALTIIALLCNNLWQRKVNIKIPTSVR”, the protein production entry is on record as “failed”.
With “MNKRLFYYLFAVLCTVTLFTSCSDDDGDDTPTVIPIEQEIAGDYKGTMDVYYVGVPDPIASGLSQKVYVTKASDTAVKLELRDFVFFLGSEELNLGTIAVENCPVTVEGTSYKFSGNQKMTLLVGDCDVAVSGTIGSGNLAMIVDVKVGGGTLQVKVDYKGTKLAGTESTEAKILSFTFDKSVEANAVVFSEPIVNEEDGTIVFEVLKDVTTDDLKKLVPTIEVSAKATVTPASGATVDFSSNKAIFTVVAEDGSSKIYTASISGRAFVVSYDFEEWDPVTHKPMLGNEETFTTPTGWCTSNYGIVEMGMFKPMLGVSGWLVTEESEGHNGKSALLRTINSKGGVGGLIPTITTGSLFLGTWSTNAGNTLNSTKFGNQFNNSLGRPVAVKGWYKYESGKDFYTCESDATDKATIDVSKGEYADQYSIKVSLYTTEEYDETGFSDYLTGESGDNNFYTSSRVVAKGGVEGGSTDGQWKEFTITLDYGDAEFDINQKYRFAIVCSSSKEGDKFWGAPESKLWVDDIEVIYKK” the entry was “failed”.
With “MNKRSIFSNWFITARPKTLPLALASIMVGSALANWVGQFDWVTNLLAIITTMLLQILSNFANDYGDYVKGSDTQERIGPLRAIQQGNITGEQLRQAVIFLSFLSFISGLVLTIYAYQSLQDLLVFVSLGVVSIIAAISYTVGKKAYGYLGLGDLFVLIFFGFVAVIGSFYLQAHSIPIIILLPAFACGLLSVAVLNINNLRDINQDRQAGKNTLIVRIGSDNGRIYHMLLLTLAVICYLIFAIIEGNHWYNYLFLLAVPLLVQHALFVYRYQEPIELRPMLGKMAALALLTNLLFSIGIMLG” the entry was “failed”; with “MNKSKIAGIMAKLNAVDNQLVEDVAYVRSRDFPNQRFDHQQGYKGSYGNGQTSYSQNSQFQQPLQNNNSFSFTRNFDLASYQDLTAPIPRWNESSLTTSWHAASMESGYEFMKDDESDEFDVAKAVTKQNRAGSTLISRVARHTLIVLTDTTWVSIHNNTNLRKCRRLTEQNRPRLTEQD”, “failed”; with “MNKVDEIEDFRFEDLEMETEKDKERMMTPTTRMSYSSSSSPSPSSASSSAASSLAAKAIRASSAHRDSSLSSAYSSPSSAPVPTPPKEVNKAYEYTSMKSLNEPKRGFWGSLASKAKAFLDEDDPNQLPQSPKRMEQSIPSATTSGTKEAGQTGRKSENPSLQRRLDAITSSLNYIGGTIGTVVEEGITAVENRTAGIIQETRKKIKKKPSLTRNQQNPEIQADLEIQLKASRDVAMAMAAKAKLLLRELKMVKSDLAFAKQRCAQLEEENKVLRENRSGDSQTDDDDLVRLQLETLLAEKARLAHENSIYTRENLYLRGVVEYHQLTMQDVVYFDEKTEEVTEVYPINVSSMSSSSDNSYNPNPSFLELK”, “failed”.
In the case of “MNKVLINDTTLRDGEQAAGVVFTLEEKVAIAKFLDTIGVPELEVGIPAMGEEEMRAICAISNLGLKANLLAWNRAVISDIKASVACGMERVHIAIPVSGIQIAAKFHGQWRVSLQRLKDCISFAVDQGLWVAVGGEDSSRADENFLLDVALYAQEWGASRFRFCDTVGVLDPFTTYGKVKLLVSALTIPVEVHTHNDFGMATANALAGIKAGASSVNTTVIGLGERAGNAALEEVVMAIKRIYGVDMGIDTPRLLELSQLVAAASGANVPPWKAIVGENTFAHESGIHAHGVLQNPDTYEPFAPEEVGWERRLVVGKHSGRHSVSNLLEQHGIFLNPEETQSVLDAVRQQSIKKLEHHHHHH” it was “failed”.
Turning to “MNKWVITSLFAISTLSASVASALEVRYMATPQQSTWQMATNTPLECRLVHPIPNYGDAEFSSRAGKKINLDFELKMRRPMGDTRNVSLVSMPPVWRPGEGADRITNLQFFKQFDGYIGGQTAWSLLSELEKGRYPTFSYQDWQSRDQRIEVALSSVLFQQPYNEFSDCISKLLPYSFEDISFTILHYDQGTSVELNKASQKRLAQIAEYVRYNQDIDLVLVSTYTDSTDTNNNSQNLSEQRAEVLREYFKSIGLPEDRIQVQGYGKRRPIADNASPIGKDKNRRVVISLGRTQV”, the protein production entry is reported as “failed”.
In the case of “MNLDLGSTVRGYESDKDTFPQSKGVSSSQKEQHSQLNQTKIAYEQRLLNDLEDMDDPLDLFLDYMIWISTSYIEVDSESGQEVLRSTMERCLIYIQDMETYRNDPRFLKIWIWYINLFLSNNFHESENTFKYMFNKGIGTKLSLFYEEFSKLLENAQFFLEAKVLLELGAENNCRPYNRLLRSLSNYEDRLREMNIVENQNSVPDSRERLKGRLIYRTAPFFIRKFLTSSLMTDDKENRANLNSNVGVGKSAPNVYQDSIVVADFKSETERLNLNSSKQPSNQRLKNGNKKTSIYADQKQSNNPVYKLINTPGRKPERIVFNFNLIYPENDEEFNTEEILAMIKGLYKVQRRGKKHTEDYTSDKNRKKRKLDVLVERRQDLPSSQPPVVPKSTRIEVFKDDDNPSQSTHHKNTQVQVQTTTSILPLKPVVDGNLAHETPVKPSLTSNASRSPTVTAFSKDAINEVFSMFNQHYSTPGALLDGDDTTTSKFNVFENFTQEFTAKNIEDLTEVKDPKQETVSQQTTSTNETNDRYERLSNSSTRPEKADYMTPIKETTETDVVPIIQTPKEQIRTEDKKSGDNTETQTQLTSTTIQSSPFLTQPEPQAEKLLQTAEHSEKSKEHYPTIIPPFTKIKNQPPVIIENPLSNNLRAKFLSEISPPLFQYNTFYNYNQELKMSSLLKKIHRVSRNENKNPIVDFKKTGDLYCIRGELGEGGYATVYLAESSQGHLRALKVEKPASVWEYYIMSQVEFRLRKSTILKSIINASALHLFLDESYLVLNYASQGTVLDLINLQREKAIDGNGIMDEYLCMFITVELMKVLEKIHEVGIIHGDLKPDNCMIRLEKPGEPLGAHYMRNGEDGWENKGIYLIDFGRSFDMTLLPPGTKFKSNWKADQQDCWEMRAGKPWSYEADYYGLAGVIHSMLFGKFIETIQLQNGRCKLKNPFKRYWKKEIWGVIFDLLLNSGQASNQALPMTEKIVEIRNLIESHLEQHAENHLRNVILSIEEELSHFQYKGKPSRRF” it was “failed”; in that of “MNLFAPPALFRHFHRMAWLAALFTASTILFGSFVRLSDAGMSCPDWPTCYGRVTWPQTSDEANTHVASKIRPLESHKAWREQVHRFLAGALGVEVLVLSLLAVRRRRMGIAQVVSAAVLVALSIPLYMSGWHATAFGMAITGEAILLLAALRWSNIDLARAAVLTLAVVIFQALLGMWTVTLLLKPIVVMGHLLGGMLMFSLLVWMAWRATHLPITLADASRLKWLLRLGVAVLGLQIALGGWVSANYAALACGGGSWSADNFPRCVSQWWPPHDFREGFTLWRGIGVDYEGGVLDGAARIAIQMAHRLWAIATALYLWWLAWRLSRSPGMRVWAGALALLVAVQVTLGMLNVKLALPLEVSLMHNGGAVALLFVLVSLLARLRAPE”, “failed”; in that of “MNLFVLLFVFVFGIIGSYSSKFSEKNLFWLFVIVLAIIIGGRSISVPDTDQYLEFYQLTLSSSILDIPLYSYEIGFQLLTKILKLITNGSSFFYFGIIVLINSYFLFKSFSCFTDQSYPSKKSSGTLINQIKLQEFLLLYFSYWGLYYTGIVLRAGIAMSILIYLSTLLCSPYISLKKWSAIFLLAIISCSFHITALLGIIALIIFYISKKMTMRSYLLLFLLICIILFGKVSFWIVDMLDRNMPMIFSLIEDTDFAKLQAYSNIDASIKISFRFLFCLLIGLFFIICKRMPLYYYKYLNVYIVGLFLGALFSAIEAFSRIMDFFVIYSFILISMRLSTINSFKIRFSIMFSIVLIQLLFVYRIIIGL”, “failed”.
Consider “MNLGILLGFLIYLVLLAYIGWWANRYTKTEEQYFIGGRKVHVLAATLSDKASDFSGWLMLGYPGTAFKTGLGAFWAAIGCLFGTLADYLLIGPRLRIYAGKFRSITLPDYLEARLKDNTKLIRILSAAIILIFMTAYVAAQFAAGGKTFSEAFGVSVTTGILITVIILTAYVITGGFFAVVWTDVVQAMFMLLTLIIMPILALAEIGGLDKATQIIGSVNPAKLHPFGGATGLAAIVFAIGYASWIVGYLGQPHIVTRYMSVEDPRKLRRPGIFISGIWTTIVLWGAFFAGFLGFALAINGSIKIDDPEKIVPAMAVHFLPSWIAGFVIAGIISAVMSTADSQLLVASSAIARDIYHKVLGQELGKKQMVNISRVVVAIVSLIAMWFAISGPKVIYQMVATAWGGLAVGFGPILTLSLWWKRVTKEAGIIGMGYGLISEVLLEAKIYGWAFNPNAPGFFGTLGKWFNGVPVFFINFFITLLVIIIVSLLTKPPEDVVKLHKELFKKVPIEKSEKIKVARAKSQAENVFDFAIASGLL”, for which the protein production entry is given as “failed”.
In the case of “MNLILYLVTVFVALFAMVNPIGALPVLVSVTEGYSKDDFERVVRYAAMSEALMLFSFMLIGIYIFEVLGININDFKVAGGVLLFKVAFDMLQGRTSTTKLTPAETEESIERTSIGIAPIGTPLLAGPGSITAAIIYFNSYSVNIPEKIAVVISVSLVVVISYFILHYSSVLFKYLGKTGSLIISRIMGLLLAAIAVDFMVTGLAFIVKSITGV” it was “failed”; in that of “MNLKDLLAHRENLMDSAKRARSAITDDMDPADAAQAVENVKSIISEIESTDEAIAARRGVSDVTQKLKGLTITERGTENDSAASRSLGEHFVKAAGDRLKNQAAGAHIEYSVPEYQVKEDAHSSPKDLVEGWGTFYQRGIINQRRERLVAADLMGAATVTASTVKYIVEKANRIASGAPATVAEGTKKPYVKYADFDVVTESLSKVAALAKFTDEMIEDYDFVASWINNNLVYDLSVVEEKQLINGDGRGSNIKGLLNREGIQTHKSAKQADWFNDLFKAKNKVSQATNLEADGIMINPVNYEALRLTKDGNGQYIAGGPFQGQYGNGNILIDPPLWGIKTVVSNAVPAGTAIVGAFRQGATVLRKGGVRVDSANTNADDFENNLVTLRAEERLGLMVPLPAAFVKVTLEETTEEL”, “not failed”.
Turning to “MNLKQIAKDTAKTLQSYLTYQALMTVLAQLGETNPPLALWLHTFSVGKVQDGEAYVKELFREQPDLALRIMTVREHIAEEVAEFLPEMVRSGIQQANMEQRRQHLERMTHLSLSNPSPESEQQTISDTDWDH”, the protein production result is given as “failed”.
Regarding “MNLKTLKIFIEGYGCTLNTADTNIINNSIKKFKNFIIVNNLDDADIVVINTCVVRLETEHKMISRINYIKSLNKYIVIAGCMPKALKKKAEKINPDILIMPKEAHLIGDIIYNYFKNNIGNENNADNKIEDSMKCGELPHNQASSSGNYNDIDNKLTQLKPNNLIMPLPISEGCTGKCTYCIVKIARGRLASYNPDKIINKAKEFVDNGVKQMLITSQDTACYGFDKNTTLPTLLNEICQIKGDFNIRIGMMHAKNVPMIIDELIDRYKDDKITKFFHLPIQSGDDDVLRAMKREYTVDEYMDIAMEFKRKIKDLNFNTDVIVGFPTETEDNFNNTIELLKKLKPDAIHGAKYTQRKGTEADRLKQVDTKIRKERMKILDKLRKEFSLENHEKYVGKIMPCLIVGKNEGITHNCKTVKFENCEDVKIGEFRKIKIKEALTFGLYGEIIN”, the protein production entry was “failed”.
